Measurements published in the supplement of paper PMC6379048.
pEC50: −log10 of the molar value.

Assays:
Assay in all cases: EC50 of free RNA motif oligo competing protein binding to immobilised probe
MCM4 = target: T1, MCM4 (UniProt P33991)
T1 sequence: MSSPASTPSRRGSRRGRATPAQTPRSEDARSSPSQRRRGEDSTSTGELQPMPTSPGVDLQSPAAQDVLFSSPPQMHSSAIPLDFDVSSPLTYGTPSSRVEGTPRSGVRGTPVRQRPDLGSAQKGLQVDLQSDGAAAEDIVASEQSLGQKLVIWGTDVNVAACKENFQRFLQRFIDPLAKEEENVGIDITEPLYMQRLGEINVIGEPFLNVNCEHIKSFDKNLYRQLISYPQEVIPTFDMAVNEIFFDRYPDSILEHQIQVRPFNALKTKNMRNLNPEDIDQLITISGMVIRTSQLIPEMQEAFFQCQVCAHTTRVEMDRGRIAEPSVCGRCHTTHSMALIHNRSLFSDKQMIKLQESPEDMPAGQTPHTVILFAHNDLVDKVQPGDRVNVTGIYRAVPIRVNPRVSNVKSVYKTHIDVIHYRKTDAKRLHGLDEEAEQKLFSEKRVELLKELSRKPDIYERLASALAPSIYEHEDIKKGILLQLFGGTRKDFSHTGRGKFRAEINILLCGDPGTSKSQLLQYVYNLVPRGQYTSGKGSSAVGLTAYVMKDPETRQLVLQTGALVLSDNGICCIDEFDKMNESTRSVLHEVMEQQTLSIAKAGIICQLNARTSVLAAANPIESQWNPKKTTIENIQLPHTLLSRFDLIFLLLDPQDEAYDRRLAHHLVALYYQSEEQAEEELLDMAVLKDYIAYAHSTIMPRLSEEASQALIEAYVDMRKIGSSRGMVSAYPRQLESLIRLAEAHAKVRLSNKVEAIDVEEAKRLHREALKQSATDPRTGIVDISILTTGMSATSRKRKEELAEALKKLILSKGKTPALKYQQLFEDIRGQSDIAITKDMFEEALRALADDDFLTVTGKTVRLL
Outline: (§1)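 Kd was calculated as EC50, taken from a four-parameter log-logistic fit, multiplied by a protein-dependent depletion factor. The assay used HEK293-FT lysate (2.5 mg protein/well) pre-incubated for 1 h at 4°C with free RNA oligos (0 nM to 30 μM), then incubated for 30 min at 4°C with the matching oligos bound through a 5′-amino-C6 linker to NHS-Sepharose beads. Bound proteins were measured by label-free LC-MS/MS and normalised to the control.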

DDX21 = target: T2, DDX21 (UniProt Q9NR30)
T2 sequence: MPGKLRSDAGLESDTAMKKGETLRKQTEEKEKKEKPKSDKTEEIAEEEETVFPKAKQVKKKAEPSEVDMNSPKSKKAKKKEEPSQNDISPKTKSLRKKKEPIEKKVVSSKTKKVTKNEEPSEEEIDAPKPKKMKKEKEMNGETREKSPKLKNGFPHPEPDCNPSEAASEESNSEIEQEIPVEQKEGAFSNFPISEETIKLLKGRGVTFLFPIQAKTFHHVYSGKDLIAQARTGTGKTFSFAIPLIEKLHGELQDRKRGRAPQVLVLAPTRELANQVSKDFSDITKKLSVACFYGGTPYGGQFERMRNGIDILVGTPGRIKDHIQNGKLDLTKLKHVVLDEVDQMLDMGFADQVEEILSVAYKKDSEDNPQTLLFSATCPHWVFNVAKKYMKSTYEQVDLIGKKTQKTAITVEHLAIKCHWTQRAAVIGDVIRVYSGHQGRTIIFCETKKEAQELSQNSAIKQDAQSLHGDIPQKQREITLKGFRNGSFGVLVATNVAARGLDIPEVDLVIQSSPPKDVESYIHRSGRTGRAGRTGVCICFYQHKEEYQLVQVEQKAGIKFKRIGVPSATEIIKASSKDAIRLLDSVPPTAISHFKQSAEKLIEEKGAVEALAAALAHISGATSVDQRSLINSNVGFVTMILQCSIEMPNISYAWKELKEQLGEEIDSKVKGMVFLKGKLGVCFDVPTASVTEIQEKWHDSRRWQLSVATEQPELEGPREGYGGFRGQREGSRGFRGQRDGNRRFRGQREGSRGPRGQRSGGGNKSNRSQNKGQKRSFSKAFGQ
Outline: as §1

RPS25 = RPS25 (UniProt P62851)
Outline: as §1

ICT1 = ICT1 (UniProt Q14197)
Outline: as §1

MRPL17 = MRPL17 (UniProt Q9NRX2)
Outline: as §1

HNRNPA1 = HNRNPA1 (UniProt P09651)
Outline: as §1

PLOD1 = target: T3, PLOD1 (UniProt Q02809)
T3 sequence: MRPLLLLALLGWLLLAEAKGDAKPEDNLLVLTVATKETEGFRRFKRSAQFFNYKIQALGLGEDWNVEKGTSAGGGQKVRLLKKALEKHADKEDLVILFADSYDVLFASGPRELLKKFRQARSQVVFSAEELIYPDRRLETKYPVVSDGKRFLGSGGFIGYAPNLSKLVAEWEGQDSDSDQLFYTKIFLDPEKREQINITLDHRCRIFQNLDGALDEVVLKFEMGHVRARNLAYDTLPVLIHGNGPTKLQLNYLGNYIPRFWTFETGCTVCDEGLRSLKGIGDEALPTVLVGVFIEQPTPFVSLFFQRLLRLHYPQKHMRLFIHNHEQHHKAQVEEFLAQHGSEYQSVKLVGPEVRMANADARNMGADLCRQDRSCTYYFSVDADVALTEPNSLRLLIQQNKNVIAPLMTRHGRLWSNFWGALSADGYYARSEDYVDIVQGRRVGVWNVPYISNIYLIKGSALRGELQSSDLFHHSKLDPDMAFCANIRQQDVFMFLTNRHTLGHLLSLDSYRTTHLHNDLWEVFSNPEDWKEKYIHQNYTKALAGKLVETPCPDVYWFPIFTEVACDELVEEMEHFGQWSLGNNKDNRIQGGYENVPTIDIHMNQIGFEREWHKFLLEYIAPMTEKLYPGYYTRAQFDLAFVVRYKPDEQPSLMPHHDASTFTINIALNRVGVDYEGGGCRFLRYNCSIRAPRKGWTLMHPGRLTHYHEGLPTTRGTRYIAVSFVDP
Outline: as §1

Sequence of HNRNPA1 (P09651 whole entry): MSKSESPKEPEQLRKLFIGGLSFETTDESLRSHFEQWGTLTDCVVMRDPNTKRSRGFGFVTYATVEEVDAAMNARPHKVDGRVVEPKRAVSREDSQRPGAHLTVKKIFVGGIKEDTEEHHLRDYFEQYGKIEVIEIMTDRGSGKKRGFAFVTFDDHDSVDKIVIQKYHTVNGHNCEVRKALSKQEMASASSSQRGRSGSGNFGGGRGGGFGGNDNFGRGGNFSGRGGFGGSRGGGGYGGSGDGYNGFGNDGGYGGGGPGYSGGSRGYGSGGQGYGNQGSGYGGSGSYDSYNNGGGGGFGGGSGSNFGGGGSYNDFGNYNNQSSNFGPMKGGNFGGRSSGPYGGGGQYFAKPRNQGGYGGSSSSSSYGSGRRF

AAUAAA gave a pEC50 (MCM4) of 7.30.

CUGUCCU gave a pEC50 (DDX21) of 6.94, a pEC50 (RPS25) of 7.14 and a pEC50 (ICT1) of 6.90. The pEC50 (MRPL17) was 7.28.

With UAUUUAU the pEC50 (HNRNPA1) was 5.53 and the pEC50 (PLOD1) was 5.17.
